# Target: T1, N46 (HIV-1)
# T1 construct: Synthetic peptide from the gp41 N-terminal heptad repeat; Used at 8 uM in CD and 0.5 uM in the ELISA; also called NHR-peptide N46
# Assay: competition ELISA: inhibition of six-helix bundle formation between N46 and C34-biotin (competitor), detected with mAb NC-1
binder,measurement,value
WQEWEQKITALLEQAQIQQEKNEYELQKLDKWASLWEWF (39-mer hybrid polypeptide) [T-1249],EC50,800 nM

# — patent US20100040631A1 (NEW YORK BLOOD CENTER, published 2010)
